Experiment [1] addresses hPDGFR-β on human pericyte cells (human, UniProt P09619 33-1106). The experiment is described as follows: cell-based or functional assay.
Experiment [2] concerns the target T1, cynomolgus monkey PDGFR-β (Fc chimera) (cynomolgus monkey).
T1 construct: not shown: human Fc (hFc) and its junction to the receptor part
T1 chain: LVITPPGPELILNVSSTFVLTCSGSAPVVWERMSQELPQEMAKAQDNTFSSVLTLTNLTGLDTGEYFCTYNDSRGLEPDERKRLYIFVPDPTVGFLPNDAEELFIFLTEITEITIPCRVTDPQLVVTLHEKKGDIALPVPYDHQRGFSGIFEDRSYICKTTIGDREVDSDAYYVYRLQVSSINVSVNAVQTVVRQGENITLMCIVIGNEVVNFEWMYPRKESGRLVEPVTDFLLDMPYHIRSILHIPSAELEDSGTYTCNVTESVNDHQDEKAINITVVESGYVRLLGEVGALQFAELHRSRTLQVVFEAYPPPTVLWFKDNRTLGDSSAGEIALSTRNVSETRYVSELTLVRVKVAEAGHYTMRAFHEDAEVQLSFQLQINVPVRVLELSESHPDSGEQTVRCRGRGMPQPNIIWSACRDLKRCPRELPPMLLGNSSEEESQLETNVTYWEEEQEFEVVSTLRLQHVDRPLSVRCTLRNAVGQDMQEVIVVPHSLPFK
In words: cross-species ELISA on coated antigen, 100 nM bispecific, HRP-anti-human Cκ detection. In general terms: An ELISA detects its analyte on a solid surface through an enzyme-linked reagent.

Experiment [3] concerns the target T2, Sus scrofa PDGFR-β-Fc chimera (Sus scrofa, UniProt Q6QNF3 33-530 (dog entry)).
T2 construct: also called Sus crowfa PDGFR-β; not shown: human Fc (hFc) and its junction to the receptor part
T2 chain: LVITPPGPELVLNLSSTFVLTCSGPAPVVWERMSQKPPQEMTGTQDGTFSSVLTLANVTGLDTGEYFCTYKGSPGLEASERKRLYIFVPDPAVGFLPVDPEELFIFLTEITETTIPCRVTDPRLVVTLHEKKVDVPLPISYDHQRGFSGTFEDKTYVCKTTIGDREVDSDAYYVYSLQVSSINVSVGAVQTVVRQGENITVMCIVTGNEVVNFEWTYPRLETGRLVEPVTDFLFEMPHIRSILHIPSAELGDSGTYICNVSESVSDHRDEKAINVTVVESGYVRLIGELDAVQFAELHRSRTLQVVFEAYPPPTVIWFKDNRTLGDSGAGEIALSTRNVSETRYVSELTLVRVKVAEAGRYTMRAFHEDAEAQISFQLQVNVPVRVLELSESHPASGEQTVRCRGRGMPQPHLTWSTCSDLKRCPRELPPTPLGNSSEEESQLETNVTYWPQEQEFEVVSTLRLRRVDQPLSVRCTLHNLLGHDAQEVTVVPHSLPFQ
Described as above.

Another experiment concerns the target mPDGFR-β on NIH3T3 cells (mouse, UniProt P05622 32-1098). In words: cell-based or functional assay.

Sequence of mPDGFR-β on NIH3T3 cells (P05622 32-1098): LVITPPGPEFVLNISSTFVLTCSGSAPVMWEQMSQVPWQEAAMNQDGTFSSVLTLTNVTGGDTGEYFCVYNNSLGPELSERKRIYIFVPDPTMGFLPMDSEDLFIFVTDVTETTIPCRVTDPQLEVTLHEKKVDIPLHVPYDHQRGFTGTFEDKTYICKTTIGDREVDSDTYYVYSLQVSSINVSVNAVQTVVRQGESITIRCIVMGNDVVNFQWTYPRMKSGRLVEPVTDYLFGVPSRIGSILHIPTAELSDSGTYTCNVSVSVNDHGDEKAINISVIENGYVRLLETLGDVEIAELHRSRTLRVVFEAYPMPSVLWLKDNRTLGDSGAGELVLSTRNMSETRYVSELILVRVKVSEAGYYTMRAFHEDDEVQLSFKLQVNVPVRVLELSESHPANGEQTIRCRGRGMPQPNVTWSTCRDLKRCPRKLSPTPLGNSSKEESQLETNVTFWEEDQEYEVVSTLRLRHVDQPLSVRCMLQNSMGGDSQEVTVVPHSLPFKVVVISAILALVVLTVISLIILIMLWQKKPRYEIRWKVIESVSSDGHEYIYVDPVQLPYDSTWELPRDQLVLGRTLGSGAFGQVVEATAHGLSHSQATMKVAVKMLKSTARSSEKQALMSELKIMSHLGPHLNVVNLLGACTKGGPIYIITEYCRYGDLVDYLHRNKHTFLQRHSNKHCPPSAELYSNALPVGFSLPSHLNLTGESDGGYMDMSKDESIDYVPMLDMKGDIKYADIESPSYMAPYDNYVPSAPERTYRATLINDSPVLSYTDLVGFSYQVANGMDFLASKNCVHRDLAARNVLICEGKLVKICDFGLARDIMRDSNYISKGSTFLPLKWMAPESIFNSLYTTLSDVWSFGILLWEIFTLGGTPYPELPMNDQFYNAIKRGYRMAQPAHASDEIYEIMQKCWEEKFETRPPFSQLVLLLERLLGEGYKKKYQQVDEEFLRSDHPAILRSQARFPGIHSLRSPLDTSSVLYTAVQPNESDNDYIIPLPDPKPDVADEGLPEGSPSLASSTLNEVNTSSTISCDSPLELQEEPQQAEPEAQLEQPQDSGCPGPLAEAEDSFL
Sequence of hPDGFR-β on human pericyte cells (P09619 33-1106): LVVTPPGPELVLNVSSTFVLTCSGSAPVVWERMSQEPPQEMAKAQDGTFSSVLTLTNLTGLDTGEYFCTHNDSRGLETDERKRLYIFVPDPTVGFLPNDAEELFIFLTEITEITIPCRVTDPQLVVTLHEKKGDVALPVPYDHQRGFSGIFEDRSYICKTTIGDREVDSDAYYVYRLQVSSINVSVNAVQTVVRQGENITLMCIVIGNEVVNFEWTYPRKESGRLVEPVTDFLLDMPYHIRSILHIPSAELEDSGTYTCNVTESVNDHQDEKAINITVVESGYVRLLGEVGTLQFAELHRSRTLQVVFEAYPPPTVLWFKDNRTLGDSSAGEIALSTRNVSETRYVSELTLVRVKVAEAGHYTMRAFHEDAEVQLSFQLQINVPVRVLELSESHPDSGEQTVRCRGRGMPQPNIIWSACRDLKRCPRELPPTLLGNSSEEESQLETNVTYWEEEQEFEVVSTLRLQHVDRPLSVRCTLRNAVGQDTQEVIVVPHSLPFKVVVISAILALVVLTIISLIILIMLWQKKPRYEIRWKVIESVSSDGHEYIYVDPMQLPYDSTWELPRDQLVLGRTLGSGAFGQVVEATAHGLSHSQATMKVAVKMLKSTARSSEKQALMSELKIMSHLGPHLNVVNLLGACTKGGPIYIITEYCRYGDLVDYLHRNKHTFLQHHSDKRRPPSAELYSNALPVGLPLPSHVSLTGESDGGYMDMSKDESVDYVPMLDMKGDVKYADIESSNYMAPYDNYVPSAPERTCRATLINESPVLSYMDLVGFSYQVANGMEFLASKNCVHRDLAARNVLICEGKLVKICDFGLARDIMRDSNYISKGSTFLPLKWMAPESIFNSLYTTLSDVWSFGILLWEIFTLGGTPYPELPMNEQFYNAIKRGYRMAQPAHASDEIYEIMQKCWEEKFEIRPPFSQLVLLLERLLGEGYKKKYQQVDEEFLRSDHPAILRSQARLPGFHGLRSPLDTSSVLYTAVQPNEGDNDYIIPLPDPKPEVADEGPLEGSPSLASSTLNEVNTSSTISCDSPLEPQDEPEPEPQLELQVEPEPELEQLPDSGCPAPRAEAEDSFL

B1: PRb-CN26 x cotinine scFv-Cκ-scFv fusion protein (bispecific antibody) (bispecific antibody)
chain: LTQPSSVSANPGETVKITCSGGGSYAGSYYYGWYQQKSPGSAPVTVIYDNTNRPSNIPSRFSGSLSGSTDTLTITGVQAEDEAVYFCGGYDGISDTGIFGAGTTLTVLGQSSRSSGGGGSSGGGGSAVTLDESGGGLQTPGGGLSLVCKASGFTFSDRGIHWVRQAPGKGLEWVAGIGNTGSYTAYAPAVKGRATISRDNGQSTVRLQLNNLRAEDTATYYCAKRGFMDAGGIDAWGHGTEVIVSSTSGGGGSGGGGSGGGGSRTVAAPSVFIFPPSDEQLKSGTASVVCLLNNFYPREAKVQWKVDNALQSGNSQESVTEQDSKDSTYSLSSTLTLSKADYEKHKVYACEVTHQGLSLPVTKSFNRGESGGGGSGGGGSGGGGSDIQMTQSPSSLSASVGDRVTITCQSSQSPYSNEWLSWYQQKPGKAPKLLIYRISTLASGVPSRFSGSRSGTDFTLTISSLQPEDFATYYCAGGYNFGLFLFGQGTKVEIKGQSSRSSGGGGSSGGGGSEVQLVESGGGLVQPGGSLRLSCAASGHLRRRDWMNWVRQAPGKGLEWVAAIGRSGDTYYATWAKGRFTISADTSKNTAYLQMNSLRAEDTAVYYCSRIPYFGWNNGDIWGQGTLVTVSS
B1: in experiment [1], the “IC50 (nM) of relative cell viability (cellular ATP), human pericyte cells, bispecific complexed with cot-duo, with hPDGF-BB” value was determined as 0.87 nM and the “IC50 (nM) of relative cell viability (cellular ATP), human pericyte cells, bispecific complexed with cot-duo, without hPDGF-BB” value came out at 0.9 nM. The binding result in experiment [2] is listed as “binds”. Further, the binding result in experiment [3] is “binds”.

B2: PRb-CN01 x cotinine scFv-Cκ-scFv fusion protein (bispecific antibody) (bispecific antibody)
chain: LTQPSSVSANPGETVKITCSGGSGSYGWFQQKSPGSAPVTVIYSNNQRPSDIPSRFSGSKSGSTNTLTITGVQAEDEAIYYCGTRDSSYVGIFGAGTTLTVLGQSSRSSGGGGSSGGGGSAVTLDESGGGLQTPGGALSLVCKASGFTFSDRAMHWVRQAPGKGLEWVGLITNTGGSTNYGAAVKGRATISRDNGQSTVRLQLNNLRAEDTGTYYCTRGVGSWAHGGRIDAWGHGTEVIVSSGGGGSGGGGSGGGGSRTVAAPSVFIFPPSDEQLKSGTASVVCLLNNFYPREAKVQWKVDNALQSGNSQESVTEQDSKDSTYSLSSTLTLSKADYEKHKVYACEVTHQGLSLPVTKSFNRGESGGGGSGGGGSGGGGSDIQMTQSPSSLSASVGDRVTITCQSSQSPYSNEWLSWYQQKPGKAPKLLIYRISTLASGVPSRFSGSRSGTDFTLTISSLQPEDFATYYCAGGYNFGLFLFGQGTKVEIKGQSSRSSGGGGSSGGGGSEVQLVESGGGLVQPGGSLRLSCAASGHLRRRDWMNWVRQAPGKGLEWVAAIGRSGDTYYATWAKGRFTISADTSKNTAYLQMNSLRAEDTAVYYCSRIPYFGWNNGDIWGQGTLVTVSS
As for B2, in the experiment with mPDGFR-β on NIH3T3 cells, the “IC50 (nM) of relative cell viability (cellular ATP), NIH3T3 cells, bispecific complexed with cot-duo, with mPDGF-BB” value came out at 9.7 nM; the “IC50 (nM) of relative cell viability (cellular ATP), NIH3T3 cells, bispecific complexed with cot-duo, without mPDGF-BB” value was determined as 8.3 nM; the “IC50 (nM) of relative cell viability (cellular ATP), NIH3T3 cells, bispecific complexed with cot-duo-cot, with mPDGF-BB” value was 30.5 nM; the “IC50 (nM) of relative cell viability (cellular ATP), NIH3T3 cells, bispecific complexed with cot-duo-cot, without mPDGF-BB” value amounted to 20.1 nM.

B3: PRb-CC02 x cotinine scFv-Cκ-scFv fusion protein (bispecific antibody) (bispecific antibody)
chain: LTQPSSVSANPGETVKITCSGGGGSYGWYQQKSPGSAPVTVIYYNDKRPSDIPSRFSGSKSGSTGTLTITGVQAEDEAVYFCGSYNSSDSLFGAGTTLTVLGQSSRSSGGGGSSGGGGSAVTLDESGGGLQTPGGALSLVCKASGFTFSSYGMFWVRQAPGKGLEWVAGIDTGSGTNYGSAVKGRATISRDNGQSTVRLQLNNLRAEDTGTYFCTRGYAGTIDAWGHGTEVIVSSTSGGGGSGGGGSGGGGSRTVAAPSVFIFPPSDEQLKSGTASVVCLLNNFYPREAKVQWKVDNALQSGNSQESVTEQDSKDSTYSLSSTLTLSKADYEKHKVYACEVTHQGLSLPVTKSFNRGESGGGGSGGGGSGGGGSDIQMTQSPSSLSASVGDRVTITCQSSQSPYSNEWLSWYQQKPGKAPKLLIYRISTLASGVPSRFSGSRSGTDFTLTISSLQPEDFATYYCAGGYNFGLFLFGQGTKVEIKGQSSRSSGGGGSSGGGGSEVQLVESGGGLVQPGGSLRLSCAASGHLRRRDWMNWVRQAPGKGLEWVAAIGRSGDTYYATWAKGRFTISADTSKNTAYLQMNSLRAEDTAVYYCSRIPYFGWNNGDIWGQGTLVTVSS
As to B3, in the experiment with mPDGFR-β on NIH3T3 cells, the “IC50 (nM) of relative cell viability (cellular ATP), NIH3T3 cells, bispecific complexed with cot-duo, with mPDGF-BB” value worked out at 20.6 nM; the “IC50 (nM) of relative cell viability (cellular ATP), NIH3T3 cells, bispecific complexed with cot-duo, without mPDGF-BB” value came out at 20.1 nM; the “IC50 (nM) of relative cell viability (cellular ATP), NIH3T3 cells, bispecific complexed with cot-duo-cot, with mPDGF-BB” value is 89 nM; the “IC50 (nM) of relative cell viability (cellular ATP), NIH3T3 cells, bispecific complexed with cot-duo-cot, without mPDGF-BB” value is 125 nM.

B4: PRb-CC03 x cotinine scFv-Cκ-scFv fusion protein (bispecific antibody) (bispecific antibody)
chain: LTQPSSVSANPGETVKITCSGGTYNYGWYQQKSPGSAPVTVIYWNDKRPSDIPSRFSGSKSGSTGTLTITGVQAEDEAVYYCGSSDSSGLIFGAGTTLTVLGQSSRSSGGGGSSGGGGSAVTLDESGGGLQTPGGTLSLVCKASGFTFSSYAMGWVRQAPGKGLEWVAGIDTAGGTAYGPAVKGRATISRDNGQSTVRLQLNNLRAEDTATYYCTRSSYIDTWGHGTEVIVSSTSGGGGSGGGGSGGGGSRTVAAPSVFIFPPSDEQLKSGTASVVCLLNNFYPREAKVQWKVDNALQSGNSQESVTEQDSKDSTYSLSSTLTLSKADYEKHKVYACEVTHQGLSLPVTKSFNRGESGGGGSGGGGSGGGGSDIQMTQSPSSLSASVGDRVTITCQSSQSPYSNEWLSWYQQKPGKAPKLLIYRISTLASGVPSRFSGSRSGTDFTLTISSLQPEDFATYYCAGGYNFGLFLFGQGTKVEIKGQSSRSSGGGGSSGGGGSEVQLVESGGGLVQPGGSLRLSCAASGHLRRRDWMNWVRQAPGKGLEWVAAIGRSGDTYYATWAKGRFTISADTSKNTAYLQMNSLRAEDTAVYYCSRIPYFGWNNGDIWGQGTLVTVSS
In the case of B4, in the experiment with mPDGFR-β on NIH3T3 cells, the “IC50 (nM) of relative cell viability (cellular ATP), NIH3T3 cells, bispecific complexed with cot-duo, with mPDGF-BB” value turned out to be 20.7 nM; the “IC50 (nM) of relative cell viability (cellular ATP), NIH3T3 cells, bispecific complexed with cot-duo, without mPDGF-BB” value was found to be 27.3 nM; the “IC50 (nM) of relative cell viability (cellular ATP), NIH3T3 cells, bispecific complexed with cot-duo-cot, with mPDGF-BB” value came out at 50.2 nM; the “IC50 (nM) of relative cell viability (cellular ATP), NIH3T3 cells, bispecific complexed with cot-duo-cot, without mPDGF-BB” value came to 67.3 nM.

B5: PRb-CN16 x cotinine scFv-Cκ-scFv fusion protein (bispecific antibody) (bispecific antibody)
chain: LTQPSSVSANPGETVKITCSGSSSSYGWYQQKSPGSAPVTLIYENNQRPSNIPSRFSGSKSGSTGTLTITGVQAEDEAVYYCGNADRSNSAGTFGAGTTLTVLGQSSRSSGGGGSSGGGGSAVTLDESGGGLQTPGTALSLVCKASGFTFSSFNMAWVRQAPGKGLEFVGEISNTAGSTFYAPAVKGRATISRDNGQSTVRLQLNNLRAEDTAIYYCAKAAGTCYSHSCTGYIDAWGHGTEVIVSSTSGGGGSGGGGSGGGGSRTVAAPSVFIFPPSDEQLKSGTASVVCLLNNFYPREAKVQWKVDNALQSGNSQESVTEQDSKDSTYSLSSTLTLSKADYEKHKVYACEVTHQGLSLPVTKSFNRGESGGGGSGGGGSGGGGSDIQMTQSPSSLSASVGDRVTITCQSSQSPYSNEWLSWYQQKPGKAPKLLIYRISTLASGVPSRFSGSRSGTDFTLTISSLQPEDFATYYCAGGYNFGLFLFGQGTKVEIKGQSSRSSGGGGSSGGGGSEVQLVESGGGLVQPGGSLRLSCAASGHLRRRDWMNWVRQAPGKGLEWVAAIGRSGDTYYATWAKGRFTISADTSKNTAYLQMNSLRAEDTAVYYCSRIPYFGWNNGDIWGQGTLVTVSS
notes: also called anti-hPDGFR-β x cotinine scFv-Cκ-scFv
For B5, the “IC50 (nM) of relative cell viability (cellular ATP), human pericyte cells, bispecific complexed with cot-duo, with hPDGF-BB” value in experiment [1] turned out to be 1.82 nM. Besides, the “IC50 (nM) of relative cell viability (cellular ATP), human pericyte cells, bispecific complexed with cot-duo, without hPDGF-BB” value in experiment [1] amounted to 2.39 nM. Also, the binding result in experiment [2] and in experiment [3] was “binds” in each case.

B6: PRb-CC01 x cotinine scFv-Cκ-scFv fusion protein (bispecific antibody) (bispecific antibody)
chain: LTQPSSVSANLGGTVKITCSGGGSYYGWYQQKSPGSAPVTLIYYNDKRPSDIPSRFSGSKSGSTGTLTITGVQAEDEAVYFCGAWDNSAGYAGFGAGTTLTVLGQSSRSSGGGGSSGGGGSAVTLDESGGGLQTPGGALSLVCKGSGFTFSSYNMGWVRQAPGKGLEFVAGISAADNSTAYGAAVDGRATISRDNGQSTVRLQLNNLRAEDTATYFCIRGGGSIDAWGHGTEVIVSSGGGGSGGGGSGGGGSRTVAAPSVFIFPPSDEQLKSGTASVVCLLNNFYPREAKVQWKVDNALQSGNSQESVTEQDSKDSTYSLSSTLTLSKADYEKHKVYACEVTHQGLSLPVTKSFNRGESGGGGSGGGGSGGGGSDIQMTQSPSSLSASVGDRVTITCQSSQSPYSNEWLSWYQQKPGKAPKLLIYRISTLASGVPSRFSGSRSGTDFTLTISSLQPEDFATYYCAGGYNFGLFLFGQGTKVEIKGQSSRSSGGGGSSGGGGSEVQLVESGGGLVQPGGSLRLSCAASGHLRRRDWMNWVRQAPGKGLEWVAAIGRSGDTYYATWAKGRFTISADTSKNTAYLQMNSLRAEDTAVYYCSRIPYFGWNNGDIWGQGTLVTVSS
Take B6: in the experiment with mPDGFR-β on NIH3T3 cells, the “IC50 (nM) of relative cell viability (cellular ATP), NIH3T3 cells, bispecific complexed with cot-duo, with mPDGF-BB” value is 27.1 nM; the “IC50 (nM) of relative cell viability (cellular ATP), NIH3T3 cells, bispecific complexed with cot-duo, without mPDGF-BB” value was found to be 25 nM; the “IC50 (nM) of relative cell viability (cellular ATP), NIH3T3 cells, bispecific complexed with cot-duo-cot, with mPDGF-BB” value came to 67.2 nM; the “IC50 (nM) of relative cell viability (cellular ATP), NIH3T3 cells, bispecific complexed with cot-duo-cot, without mPDGF-BB” value came to 87.6 nM.

Source of the values: patent publication US20210371536A1 (SEOUL NATIONAL UNIVERSITY R AND DB FOUNDATION, published 2021).
